Positions count from the first letter of the chain named.
B1: ADI-15628 (antibody, V domains shown)
VH: QVQLVQSGGGVVQPGRSLRLSCAASGFTFSDFSMHWVRQAPGKGLEWVALISNDGSNKYYSDSLKGSFIISRDNSKNTLYLQLNSLGAEDTALYYCARDAVPHYDYVWGNFDYWGPGTLVTVSS
VL: QPVLTQPASVSASPGQSITISCTGTSSDVGGYNYVSWYQQHPGKAPKLIVYEVSNRPSGVSNRFSGSKSGNTASLTISGLQADDEADYYCSSYTSFTPVVFGGGTKVTVL
notes: IgG
B2: ADI-15652 (antibody, V domains shown)
VH: B1 VH with Q1E, V5L, Q6E, P116Q
VL: B1 VL with P2S, V50I, V107L
notes: IgG
B3: ADI-15663 (antibody, V domains shown)
VH: QVQLVQSGGGLVKPGGSLRLSCAASGFTFSSYTMNWVRQAPGKGLEWVSSITGGSSFTNYADSLEGRFTISRDNAKSSLFLQMNSLRVEDTAVYYCARDQPGTIFGVVQDYWGQGTLVTVSS
VL: QSVLTQPPSVSGAPGQRVTISCTGGSSNIGAGYDVHWYQQLPGTAPKLLIYGNSNRPSGVPDRFSGSKSGTSASLAITGLQAEDEADYYCQSYDSRLSVVFGGGTKVTVL
notes: IgG
B4: ADI-15603 (antibody, V domains shown)
VH: QVQLVQSGGGLVQPGGSLRLSCAASGFTFGRHAMTWVRQAPGKGLEWVAGITATGDPTYYPDSVKGRFAVSRDNSRNTLYLQMDSLRVEDTALYYCARSWDDYGDLDWYFALWGRGTMVTVSS
VL: EIVMTQSPAILSVSPGERATLSCRASQSVSSSLAWYQQKPGQAPRLLIYGASTRATGIPPRFSGSGSGTQFTLTISSLQSEDVAVYYCQQYSDWPPLTFGGGTKVEIK
notes: IgG
B5: ADI-15606 (antibody, V domains shown)
VH: B4 VH with Q1E, V5L, Q6E, G30R, H32Y, G50A, P57T, V88A, R98K, M118L
VL: B4 VL with E1D, V83F
notes: IgG
B6: ADI-15602 (antibody, V domains shown)
VH: EVQLLESGGGVVQPGKSLRLSCVASGFTFGDYGMHWVRQAPGKGLEWVAVISDGGSTKYYADSVKGRFTIARDNSKNTLNLQMNSLRAEDTAVYYCAKDLAWIFGLGASYMDVWGQGTLVTVSS
VL: DIQLTQSPGTLSLSPGERATLSCRASQTVSSSYLAWYQQKPGQAPRLLIYDASSRATGIPDRFSGSGSGTDFTLTISRLEPEDFAVYYCQQYGSSPFGLTFGGGTKVEIK
notes: IgG
B7: ADI-15662 (antibody, V domains shown)
VH: QVQLQESGPGLVKPSETLSLTCTVSGGSVSRGSYYWTWIRQPPGKGLEWIGYIYYSGSTNYNPSLKSRVTISVDTSKNQFSLKLSSVTAADTAVYYCARDIGEDKYGTYYGMDVWGQGTTVTVSS
VL: EIVMTQSPATLSLSPGERATLSCRASQSVSSSLAWYQQKPGQAPRLLIYGASNRATGIPARFSGSGSGTDFTLTISSLEPEDFAVYYCQQRTNWPPVTFGPGTKVEIK
notes: IgG
B8: ADI-15591 (antibody, V domains shown)
VH: EVQLLESGGGLVKPGGSLRLSCAASGFTFSSYGMHWVRQAPGKGLEWVSSITAGSSYMDYADSVKGRFTVSRDNGKNSLYLQMNSLRAEDTAVYFCAREDYDSRVYYLKWFDPWGQGTLVTVSS
VL: QSVLTQPPSVSGAPGQRVTISCTGSSSNIGTGYDVHWYQQLPGSAPKLLIYGNSNRPSGVPDRFSGSKSGTSASLAITGLQAEDEADYYCQSYDSSRSGYVFGTGTKLTVL
notes: IgG
B9: ADI-15617 (antibody, V domains shown)
VH: EVQLVESGGGLVQPGGSLRISCAASGFSISSHAVSWVRQAPGKGLEWVSVISGSGGDTHSVVQGRGSGTYYADSVKGRFTISRDNVRNTVYLQMNSLRVEDTAVYYCAKDDPTLFWSGSGYYGMDVWGQGTTVTVSS
VL: DIRVTQSPSSLSASVGDRVTITCQASQGISDSLNWYQQKPGKAPKLLIYGASKLEPGVSSRFSGRGSGRDFTFTISSLQPEDIGTYYCQQYDNLPLTFGPGTKLEIK
notes: IgG; also called Antibody Number 182
B10: ADI-15609 (antibody, V domains shown)
VH: EVQLLESGGGVVQPGRSLKLSCAASGFSFTTDVMHWIRQAPGKGLEWVAVISTDGANSYYAESVKGRFTISRDNSKNTLFLQMSSLRAEDTAVYYCASQGYHYVNMADVGVPSFDHWGQGTLVTVSS
VL: ETTLTQSPSSLSASVGDRVTITCRARRSIDNYLNWYQHKPGTAPKLLIYAVSSLPSGVPSRFSGSGSGADFTLTISSLQPEDLATYYCQQSYMTPPTFGQGTKLEIK
notes: IgG
B11: ADI-15632 (antibody, V domains shown)
VH: QVQLVQSGGGLVQPGRSLRLSCTASGFSFSDYGVTWVRQAPGKGLEWIGFVRTKGYGGTTEYAASVRGRFTISRDDSKSVAYLQLNSLKVEDTAVYYCSGASRGFWSGPTYYYFGMDVWGHGTTVTVSS
VL: EIVLTQSPLSLAVTPGEPASISCRSSQSLLHGNGYNYLDWYLQKPGQSPQLLIFWGSYRASGAPDRFSASGSGSEFTLKIRRVEAEDVGVYYCMQPLQTTFGQGTKVDIK
notes: IgG; also called Antibody Number 197
B12: ADI-15594 (antibody, V domains shown)
VH: EVQLVESGGHLVQPGGSLRLSCAASGFTFSSYSMNWVRQAPGKGLEWISYISSSSSTMYYADSVKGRFTMSRDNAKNSLYLQMNSLRDEDTALYYCARDFPPINLAATTRNYYYYVMDVWGQGTTVTVSS
VL: DIQLTQSPSSLSASVGDRVTITCRASQSISSYLNWYQQKPGKAPNLLIYATSNLKSGVPSRFSGSGSGTDFTLTISSLQPEDFATYYCQQSYSTSYTFGQGTKVDIK
notes: IgG
B13: ADI-15592 (antibody, V domains shown)
VH: EVQLVESGGALVKPGGSLRLSCVGTGLTFTTAYMSWARQAPGKGLEWVGRIKSKSDGGTTEYPTPVKGRFTISRDESKNTLYLQMNSLKIEDTAVYYCTTDRGITARPIFDSWGQGTLVTVSS
VL: QSVLTQPPSVSGALGRRVTISCTGSSSNIGAGYDVHWYRQLPGTAPKLLIYGNTKRPSGVPDRFSGSKYATSASLAITGLQAEDDADYYCQSYDGGLSGYVFGTGTQLTVL
notes: IgG; also called Antibody Number 159
B14: ADI-15596 (antibody, V domains shown)
VH: B13 VH with K52L, E61D
VL: B13 VL with E83D, Q107K, L108V
notes: IgG
B15: ADI-15654 (antibody, V domains shown)
VH: QVQLVQSGAEVKRPGSSVKVSCKASGGTSSSYIISWVRQAPGQGLEWMGGIIPIPISGAPTYAQKFQGRANYAQKFEGRLTITADRLTSTAYMELSSLTSEDTAVYYCVRDERNGGYWGQGTLVTVSS
VL: QSALTQPASVSGSPGQSITISCTGTSNDVGAYNHVSWYQQHPGKAPKLMIYDVTNRPSGVSNRFSGSKSGNTASLTIFGLQTDDEADYYCSSYTISSTLVFGGGTQLTVL
notes: IgG; also called Antibody Number 218
B16: ADI-15610 (antibody, V domains shown)
VH: EVQLLESGAEVKKPGSSVKVSCKASGGTFSSYAITWVRQAPGQGLEWMGGIIPILGTTTYAQRFQGRVTITADKSTTTAYMELSRLRSEDTAVYYCAKTVSQYPNTYNYGMDVWGQGTTVTVSS
VL: EIVMTQSPSSLSASVGDRVTITCRASQSVSIYLNWYQQKPGKTPELLIYGASRLQSGVPSRFSGSGSGTDFTLTISSLQPEDFATYYCLQTYSTPLTFGQGTKVEIK
notes: IgG; also called Antibody Number 175
B17: ADI-15587 (antibody, V domains shown)
VH: EVQLVESGGGVVRPGGSLRLSCAASGFKFDDYGMSWVRQAPGKGLEWVSAIIWNSGSTGYADSVKGRFIISRDNAKNSLYLQMNSLRAEDTALYYCARVGGITKWWYYGMDLWGQGTTVTVSS
VL: ETTLTQSPSFLSASVGDRVTITCRASQGLSNYLAWYQQKPGRAPKLLIYAASTLQSGVPSRFRGSGSGTEFTLTISSLQPEDLATYYCQHLNSYPLTFGGGTKVEIK
notes: IgG

Experiments:
[1] = target: RSV F protein of subtype B strain 18537, on virus (respiratory syncytial virus subtype B …, UniProt P13843 26-574); experiment: cell-based or functional assay
[2] = target: RSV F protein of subtype A strain A2, on virus (respiratory syncytial virus subtype A …, UniProt P03420 26-574); experiment: cell-based or functional assay
[3] = target: T1, postfusion RSV F ectodomain (F ΔFP), subtype A (respiratory syncytial virus subtype A, UniProt P03420 26-109; P03420 147-524); experiment: BLI, IgG on sensor
T1 construct: extracellular domain; also called Postfusion subtype A
Protocol: (§1) IgG binding to DS-Cav1 and FA FP was determined by BLI measurements using a FortéBio Octet HTX instrument (Pall Life Sciences). […] Data was analyzed using the ForteBio Data Analysis Software 7. The data was fit to a 1:1 binding model to calculate an association and dissociation rate, and KD was calculated using the ratio kd/kₐ.

[4] = target: T2, prefusion-stabilized RSV F ectodomain (DS-Cav1), subtype B (respiratory syncytial virus subtype B); experiment: BLI, IgG on sensor
T2 construct: extracellular domain; also called Prefusion subtype B
Protocol: as §1

[5] = target: T3, postfusion RSV F ectodomain, subtype B (respiratory syncytial virus subtype B); experiment: BLI, IgG on sensor
T3 construct: extracellular domain; also called Postfusion subtype B
Protocol: as §1

Binder | Neut IC50 (ug/ml) subtype B [1] [µg/mL] | Neut IC50 (ug/ml) subtype A [2] [µg/mL] | Kd [3] [nM] | Kd [4] [nM] | Kd [5] [nM] | binding result [3]
B1 | 0.034 | 0.014 | 2.47 | 0.659 |  | 
B2 | 0.036 | 0.012 | 4.98 | 0.377 |  | 
B3 | 0.019 | 0.003 | 2.32 | 0.287 |  | 
B4 | 0.273 | 0.795 |  | 6.97 | 11.9 | 
B5 | 0.802 | > 10 |  | 5.75 | 5.89 | 
B6 | 0.015 | 0.046 |  | 0.807 |  | 
B7 | > 10 | 6.25 | 3.09 |  |  | 
B8 | 0.219 | 0.086 |  | 0.304 |  | 
B9 | 0.038 | 0.022 |  | 0.71 |  | no binding (tested: BLI response <0.05 nm)
B10 | > 10 | 0.022 |  | 0.628 |  | 
B11 | 5.72 | 1.42 | 2.25 | 29.4 |  | 
B12 | 3.28 | 3.25 |  | 0.549 |  | 
B13 | 20.9 | 12.3 |  | 48.2 |  | 
B14 | > 10 | 4.48 |  | 47.5 |  | 
B15 | 3.27 | 3.76 |  | 4.47 |  | no binding (tested: BLI response <0.05 nm)
B16 | > 10 | 0.727 | 0.417 |  |  | 
B17 | 0.13 | > 10 |  | 2.42 |  | 

— patent publication US20220144922A1 (Adimab, published 2022)
